Measurements reported in publication PMC3988563.
Blank lines part the entries; values can stand above or below the substance they belong to.

Tests used:
[1] = target: Ribosome termination complex (70S ribosomes, fMet-STOP mRNA and fMet-tRNA^fMet) (E. coli); assay: other fluorescence titration; 1 nM fluorescein-labeled A220C RF1 titrated with ribosome complexes (0-52 nM) in 1X 219-HEPES buffer; excitation 491 nm, emission 515 nm; quadratic fit
[2] = target: Ribosome termination complex (70S ribosomes, fMet-STOP mRNA and fMet-tRNA^fMet) (E. coli); assay: stopped-flow fluorescence; as a12, with RF3 preincubated with 1 mM GTP in the chase mixture
[3] = target: Ribosome termination complex (70S ribosomes, fMet-STOP mRNA and fMet-tRNA^fMet) (E. coli); assay: stopped-flow fluorescence; Fl-RF1 preincubated with ribosome complex, chased with excess unlabeled RF1, no RF3; Buffer 219 Tris pH 7.6, 26 C; double exponential fit, faster phase
[4] = target: Ribosome termination complex (70S ribosomes, fMet-STOP mRNA and fMet-tRNA^fMet) (E. coli); assay: stopped-flow fluorescence; with RF3 preincubated with 1 mM GDP in the chase mixture
[5] = target: Ribosome termination complex formed with wild-type RF1 (E. coli) (UniProt P0A7I0); assay: quick spin gel-filtration assay (Sephadex G-100) with SYPRO Ruby staining; RF3 preincubated with 2 mM GDPNP, mixed with release complexes (10 nM to 2 uM, threefold excess RF1), 10 min 37 C, Buffer 219 HEPES pH 7.6; quadratic fit; KD with wild-type RF1 complexes is called apparent (K_D,app)
[6] = target: Ribosome termination complex formed with GAQ-RF1 (E. coli) (UniProt P0A7I0); assay: as above
[7] = target: Ribosome termination complex formed with wild-type RF1 (E. coli) (UniProt P0A7I0); assay: quick spin gel-filtration assay (Sephadex G-100) with SYPRO Ruby staining; as a8, no nucleotide added to RF3 (copurified with GDP 1:1; 'apo' assay, no free GDP or GTP)
[8] = target: Ribosome termination complex formed with wild-type RF1 (E. coli) (UniProt P0A7I0); assay: quick spin gel-filtration assay (Sephadex G-100) with SYPRO Ruby staining; as a8, RF3 preincubated with 2 mM GDP
[9] = target: Ribosome termination complex formed with GAQ-RF1 (E. coli) (UniProt P0A7I0); assay: as above

Ribosome termination complex formed with wild-type RF1 (E. coli), sequence (P0A7I0 whole entry, looked up, one chain of several): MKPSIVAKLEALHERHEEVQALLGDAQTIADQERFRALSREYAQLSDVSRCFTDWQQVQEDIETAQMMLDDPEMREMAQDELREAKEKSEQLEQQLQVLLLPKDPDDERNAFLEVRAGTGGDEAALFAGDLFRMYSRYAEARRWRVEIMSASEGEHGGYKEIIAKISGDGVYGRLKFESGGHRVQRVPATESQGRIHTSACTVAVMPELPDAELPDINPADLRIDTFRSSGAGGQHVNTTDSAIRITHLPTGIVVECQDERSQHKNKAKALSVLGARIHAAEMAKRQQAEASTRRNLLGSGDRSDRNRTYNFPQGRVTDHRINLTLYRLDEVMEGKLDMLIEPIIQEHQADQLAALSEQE
His-tagged RF3 (class 2 release factor), sequence (P0A7I4 whole entry): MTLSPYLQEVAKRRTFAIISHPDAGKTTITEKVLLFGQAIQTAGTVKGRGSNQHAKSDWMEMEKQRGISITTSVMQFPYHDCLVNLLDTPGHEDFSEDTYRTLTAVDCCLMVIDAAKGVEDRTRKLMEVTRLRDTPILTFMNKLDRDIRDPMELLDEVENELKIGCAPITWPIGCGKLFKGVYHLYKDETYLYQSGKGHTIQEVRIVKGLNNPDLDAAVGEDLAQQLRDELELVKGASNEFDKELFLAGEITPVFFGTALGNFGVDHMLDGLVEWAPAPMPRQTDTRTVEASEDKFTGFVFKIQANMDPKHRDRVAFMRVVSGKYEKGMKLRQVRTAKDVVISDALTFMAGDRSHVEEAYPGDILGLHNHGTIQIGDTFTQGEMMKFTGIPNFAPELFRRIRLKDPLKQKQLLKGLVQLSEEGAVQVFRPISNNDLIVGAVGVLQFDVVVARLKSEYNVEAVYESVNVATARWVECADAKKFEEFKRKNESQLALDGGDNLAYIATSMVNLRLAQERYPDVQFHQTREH
Ribosome termination complex formed with GAQ-RF1 (E. coli), sequence (P0A7I0 whole entry, looked up, one chain of several): as the sequence (P0A7I0 whole entry, looked up, one chain of several) above

Kd [1]: 2.5 nM
Substance: Fluorescein-labeled A220C RF1 (from UniProt P0A7I0 1-360) (natural protein)

koff in the presence of RF3:GTP [2]: 0.14 s⁻¹
koff [3]: 0.09 s⁻¹
Substance: Fluorescein-labeled GAQ-RF1 (single-cysteine L82C or A220C) (from UniProt P0A7I0 1-360) (natural protein)

koff in the presence of RF3:GTP [2]: 2.9 s⁻¹
koff [3]: 0.005 s⁻¹
koff in the presence of RF3:GDP [4]: 0.3 s⁻¹
Substance: Fluorescein-labeled single-cysteine RF1 (either L82C or A220C) (from UniProt P0A7I0 1-360) (natural protein)

Kd [5]: 50 nM
Kd [6]: 10 nM
Kd [7]: 36 nM
Kd [8]: 430 nM
Kd [9]: 1000 nM
Substance: His-tagged RF3 (class 2 release factor) (from UniProt P0A7I4 1-529) (natural protein)
